The results in this text go back to paper PMC2735845.

For this data set, the target named is RecQ;SSB113 (Escherichia coli;Escherichia coli, UniProt P15043;P0AGE0 1-609;2-178, |P177S). The data set is described as follows: EMSA. (Mobility shift assays separate free from complexed probe on a gel.)

B1: 3'-OH partial duplex (o100/o30) (mixed)
DNA 1: GACGCTCGGTTCGTCTAGGACCGTCATTAGTATGTTGATATACATAGACCTTACCGCAGTGATTCGCTTGTCAGTCCATTGAAGCACAATTACCCACGC
DNA 2: CTAATGACGGTCCTAGACGAACCGAGCGTC
As for B1, the binding result was “binds”.
